Results on one molecule are retold here after article PMC10997057.

The target in the experiment is murine splenic AA amyloid extract (mouse (endogenous in spleen)) (UniProt P05367). Kind of experiment: co-sedimentation; pulldown with murine splenic AA amyloid extract in the presence of 20 μg non-radiolabeled peptide (competition).
murine splenic AA amyloid extract (mouse (endogenous in spleen)), sequence (P05367 20-122): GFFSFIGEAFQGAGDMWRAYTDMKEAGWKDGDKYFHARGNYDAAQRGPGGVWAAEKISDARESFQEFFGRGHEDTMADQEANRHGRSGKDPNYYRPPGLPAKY

As for GGGYSKAQKAQAKQAKQAQKAQKAQAKQAKQAQKAQKAQAKQAKQ [non-radiolabeled peptide p5+14], the % of ^99mTc-p5+14 bound in the presence of 20 μg non-radiolabeled peptide was determined as 4%.
